Test results: patent US20140087995A1 (published 2014)
Numbered stars: 1 amine (or outer) side, 2 acyl side, 3 side chain; on linkers, the order of the positions; unused ones are H or OH. Bridge positions count the residues as written; N and C are the ends. Side chains are listed from the residue outwards. Ends that are not written are not given here. * marks the point of attachment. C20 diacid = O=C(O)CCCCCCCCCCCCCCCCCCC(=O)*; γGlu = O=C(O)[C@H](CCC(=O)[*:2])N[*:1]

T1: human calcitonin receptor (human, UniProt P30988 25-474)
T1 construct: whole, on cells; also called hCTR; hCT
T1 sequence (looked up): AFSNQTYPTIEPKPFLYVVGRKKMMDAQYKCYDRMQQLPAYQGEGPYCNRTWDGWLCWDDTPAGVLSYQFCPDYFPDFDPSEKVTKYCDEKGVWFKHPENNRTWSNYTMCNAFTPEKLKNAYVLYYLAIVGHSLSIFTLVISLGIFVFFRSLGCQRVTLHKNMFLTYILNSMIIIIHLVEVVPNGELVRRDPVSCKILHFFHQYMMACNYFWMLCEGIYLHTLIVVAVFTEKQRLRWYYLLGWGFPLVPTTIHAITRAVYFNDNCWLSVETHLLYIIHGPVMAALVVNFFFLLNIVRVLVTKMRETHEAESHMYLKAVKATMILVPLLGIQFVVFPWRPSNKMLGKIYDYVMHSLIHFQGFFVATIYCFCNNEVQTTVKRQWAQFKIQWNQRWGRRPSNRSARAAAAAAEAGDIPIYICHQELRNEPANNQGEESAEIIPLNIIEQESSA


Legend:
[1] = biological target: T1, human calcitonin receptor; experiment: SPA radioligand competition (125I-calcitonin), membranes of BHK cells with human calcitonin receptor
How it was run: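 BHK hCTR membranes 35 ng/μL + SPA beads 0.05 mg/well; buffer 50 mM Hepes pH 7.4, 1 mM CaCl2, 5 mM MgCl₂, 0.1% OA, 0.02% Tween20. 120 min, 25° C., shaking. Scintillation count; IC50 by one-site binding competition.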

[2] = biological target: T1, human calcitonin receptor; experiment: ratio of IC50 at human calcitonin receptor to IC50 at human amylin receptor (SPA competition assays)
How it was run: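 IC₅₀ values were derived by one-site competition analysis of SPA counts. Cell membranes (35 ng/μL) with SPA beads were incubated with test compounds for 120 min at 25° C in Hepes buffer, pH 7.4, containing CaCl2, MgCl₂, OA and Tween20.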

Row | Binder | IC50 [1] [nM] | Ratio hCT/hAmylin binding [2]
1 | K([γGlu-γGlu-C20 diacid])CNTATCATQRLAEFLRHSSPNFGAIPSSTNVGSRTY-NH2 (disulfide 2-7; N-terminus assumed; SMILES CC[C@H](C)[C@H](NC(=O)[C@H](C)NC(=O)CNC(=O)[C@H](Cc1ccccc1)NC(=O)[C@H](CC(N)=O)NC(=O)[C@@H]1CCCN1C(=O)[C@H](CO)NC(=O)[C@H](CO)NC(=O)[C@H](Cc1c[nH]cn1)NC(=O)[C@H](CCCNC(=N)N)NC(=O)[C@H](CC(C)C)NC(=O)[C@H](Cc1ccccc1)NC(=O)[C@H](CCC(=O)O)NC(=O)[C@H](C)NC(=O)[C@H](CC(C)C)NC(=O)[C@H](CCCNC(=N)N)NC(=O)[C@H](CCC(N)=O)NC(=O)[C@@H](NC(=O)[C@H](C)NC(=O)[C@@H]1CSSC[C@H](NC(=O)[C@@H](N)CCCCNC(=O)CC[C@H](NC(=O)CC[C@H](NC(=O)CCCCCCCCCCCCCCCCCCC(=O)O)C(=O)O)C(=O)O)C(=O)N[C@@H](CC(N)=O)C(=O)N[C@@H]([C@@H](C)O)C(=O)N[C@@H](C)C(=O)N[C@@H]([C@@H](C)O)C(=O)N1)[C@@H](C)O)C(=O)N1CCC[C@H]1C(=O)N[C@@H](CO)C(=O)N[C@@H](CO)C(=O)N[C@H](C(=O)N[C@@H](CC(N)=O)C(=O)N[C@H](C(=O)NCC(=O)N[C@@H](CO)C(=O)N[C@@H](CCCNC(=N)N)C(=O)N[C@H](C(=O)N[C@@H](Cc1ccc(O)cc1)C(N)=O)[C@@H](C)O)C(C)C)[C@@H](C)O, also called compound 89) | 32.5 | 28
2 | K([γGlu-γGlu-C20 diacid])CNTATCATQRLAEFLRHSSPNFGAIPSSTNVGHETY-NH2 (disulfide 2-7; N-terminus assumed; SMILES CC[C@H](C)[C@H](NC(=O)[C@H](C)NC(=O)CNC(=O)[C@H](Cc1ccccc1)NC(=O)[C@H](CC(N)=O)NC(=O)[C@@H]1CCCN1C(=O)[C@H](CO)NC(=O)[C@H](CO)NC(=O)[C@H](Cc1c[nH]cn1)NC(=O)[C@H](CCCNC(=N)N)NC(=O)[C@H](CC(C)C)NC(=O)[C@H](Cc1ccccc1)NC(=O)[C@H](CCC(=O)O)NC(=O)[C@H](C)NC(=O)[C@H](CC(C)C)NC(=O)[C@H](CCCNC(=N)N)NC(=O)[C@H](CCC(N)=O)NC(=O)[C@@H](NC(=O)[C@H](C)NC(=O)[C@@H]1CSSC[C@H](NC(=O)[C@@H](N)CCCCNC(=O)CC[C@H](NC(=O)CC[C@H](NC(=O)CCCCCCCCCCCCCCCCCCC(=O)O)C(=O)O)C(=O)O)C(=O)N[C@@H](CC(N)=O)C(=O)N[C@@H]([C@@H](C)O)C(=O)N[C@@H](C)C(=O)N[C@@H]([C@@H](C)O)C(=O)N1)[C@@H](C)O)C(=O)N1CCC[C@H]1C(=O)N[C@@H](CO)C(=O)N[C@@H](CO)C(=O)N[C@H](C(=O)N[C@@H](CC(N)=O)C(=O)N[C@H](C(=O)NCC(=O)N[C@@H](Cc1c[nH]cn1)C(=O)N[C@@H](CCC(=O)O)C(=O)N[C@H](C(=O)N[C@@H](Cc1ccc(O)cc1)C(N)=O)[C@@H](C)O)C(C)C)[C@@H](C)O) | 15.2 | 29.1
3 | K([γGlu-γGlu-C20 diacid])CNTATCATQRLAEFLRHSSPNFGAIPSSTNVGHNTY-NH2 (disulfide 2-7; N-terminus assumed; SMILES CC[C@H](C)[C@H](NC(=O)[C@H](C)NC(=O)CNC(=O)[C@H](Cc1ccccc1)NC(=O)[C@H](CC(N)=O)NC(=O)[C@@H]1CCCN1C(=O)[C@H](CO)NC(=O)[C@H](CO)NC(=O)[C@H](Cc1c[nH]cn1)NC(=O)[C@H](CCCNC(=N)N)NC(=O)[C@H](CC(C)C)NC(=O)[C@H](Cc1ccccc1)NC(=O)[C@H](CCC(=O)O)NC(=O)[C@H](C)NC(=O)[C@H](CC(C)C)NC(=O)[C@H](CCCNC(=N)N)NC(=O)[C@H](CCC(N)=O)NC(=O)[C@@H](NC(=O)[C@H](C)NC(=O)[C@@H]1CSSC[C@H](NC(=O)[C@@H](N)CCCCNC(=O)CC[C@H](NC(=O)CC[C@H](NC(=O)CCCCCCCCCCCCCCCCCCC(=O)O)C(=O)O)C(=O)O)C(=O)N[C@@H](CC(N)=O)C(=O)N[C@@H]([C@@H](C)O)C(=O)N[C@@H](C)C(=O)N[C@@H]([C@@H](C)O)C(=O)N1)[C@@H](C)O)C(=O)N1CCC[C@H]1C(=O)N[C@@H](CO)C(=O)N[C@@H](CO)C(=O)N[C@H](C(=O)N[C@@H](CC(N)=O)C(=O)N[C@H](C(=O)NCC(=O)N[C@@H](Cc1c[nH]cn1)C(=O)N[C@@H](CC(N)=O)C(=O)N[C@H](C(=O)N[C@@H](Cc1ccc(O)cc1)C(N)=O)[C@@H](C)O)C(C)C)[C@@H](C)O, also called compound 87) | 22.5 | 35.6
4 | K([γGlu-γGlu-C20 diacid])CNTATCATQRLAEFLRHSSPNFGAIPSSTNVGPETY-NH2 (disulfide 2-7; N-terminus assumed; SMILES CC[C@H](C)[C@H](NC(=O)[C@H](C)NC(=O)CNC(=O)[C@H](Cc1ccccc1)NC(=O)[C@H](CC(N)=O)NC(=O)[C@@H]1CCCN1C(=O)[C@H](CO)NC(=O)[C@H](CO)NC(=O)[C@H](Cc1c[nH]cn1)NC(=O)[C@H](CCCNC(=N)N)NC(=O)[C@H](CC(C)C)NC(=O)[C@H](Cc1ccccc1)NC(=O)[C@H](CCC(=O)O)NC(=O)[C@H](C)NC(=O)[C@H](CC(C)C)NC(=O)[C@H](CCCNC(=N)N)NC(=O)[C@H](CCC(N)=O)NC(=O)[C@@H](NC(=O)[C@H](C)NC(=O)[C@@H]1CSSC[C@H](NC(=O)[C@@H](N)CCCCNC(=O)CC[C@H](NC(=O)CC[C@H](NC(=O)CCCCCCCCCCCCCCCCCCC(=O)O)C(=O)O)C(=O)O)C(=O)N[C@@H](CC(N)=O)C(=O)N[C@@H]([C@@H](C)O)C(=O)N[C@@H](C)C(=O)N[C@@H]([C@@H](C)O)C(=O)N1)[C@@H](C)O)C(=O)N1CCC[C@H]1C(=O)N[C@@H](CO)C(=O)N[C@@H](CO)C(=O)N[C@H](C(=O)N[C@@H](CC(N)=O)C(=O)N[C@H](C(=O)NCC(=O)N1CCC[C@H]1C(=O)N[C@@H](CCC(=O)O)C(=O)N[C@H](C(=O)N[C@@H](Cc1ccc(O)cc1)C(N)=O)[C@@H](C)O)C(C)C)[C@@H](C)O) | 2.13 | 17.6
5 | K([γGlu-γGlu-C20 diacid])CNTATCATQRLAEFLRHSSPNFGAILSSTPVGPETY-NH2 (disulfide 2-7) | 1.56 | 22.6
6 | K([γGlu-γGlu-C20 diacid])CNTATCATQRLAEFLRHSSPNFGAIPSSTNVGPRTY-NH2 (disulfide 2-7; N-terminus assumed; SMILES CC[C@H](C)[C@H](NC(=O)[C@H](C)NC(=O)CNC(=O)[C@H](Cc1ccccc1)NC(=O)[C@H](CC(N)=O)NC(=O)[C@@H]1CCCN1C(=O)[C@H](CO)NC(=O)[C@H](CO)NC(=O)[C@H](Cc1c[nH]cn1)NC(=O)[C@H](CCCNC(=N)N)NC(=O)[C@H](CC(C)C)NC(=O)[C@H](Cc1ccccc1)NC(=O)[C@H](CCC(=O)O)NC(=O)[C@H](C)NC(=O)[C@H](CC(C)C)NC(=O)[C@H](CCCNC(=N)N)NC(=O)[C@H](CCC(N)=O)NC(=O)[C@@H](NC(=O)[C@H](C)NC(=O)[C@@H]1CSSC[C@H](NC(=O)[C@@H](N)CCCCNC(=O)CC[C@H](NC(=O)CC[C@H](NC(=O)CCCCCCCCCCCCCCCCCCC(=O)O)C(=O)O)C(=O)O)C(=O)N[C@@H](CC(N)=O)C(=O)N[C@@H]([C@@H](C)O)C(=O)N[C@@H](C)C(=O)N[C@@H]([C@@H](C)O)C(=O)N1)[C@@H](C)O)C(=O)N1CCC[C@H]1C(=O)N[C@@H](CO)C(=O)N[C@@H](CO)C(=O)N[C@H](C(=O)N[C@@H](CC(N)=O)C(=O)N[C@H](C(=O)NCC(=O)N1CCC[C@H]1C(=O)N[C@@H](CCCNC(=N)N)C(=O)N[C@H](C(=O)N[C@@H](Cc1ccc(O)cc1)C(N)=O)[C@@H](C)O)C(C)C)[C@@H](C)O, also called compound 110) | 17.5 | 53.6
